B1: mouse eIF4E1B (63-244) [mouse] / eIF4E-binding motif of human eIF4EBP1 (50-83) [human] (parent complex)
chain 1: KLHPLQYRWVLWFFKNDRSRAWQDNLQLVTKFNTVEDFWAVYSHIKLASKLSSGCDYALFKEGILPMWEDNRNKQGGRWLLSIDKQLRHFELDRLWLETLLCLVGNCFEEYSREVCGAVVNIRTKRDKIALWTSEAEDKAGVMQIGQIYKERLGISTKTIIGYQAHADTAAKSNNLANKFVV
chain 2: TRIIYDRKFLMECRNSPVTKTPPRDLPTIPGVTS
B2: mouse eIF4E1B (63-244) [mouse] / eIF4E-binding motif of human eIF4G (608-647) [human] (parent complex)
chain 1: B1 chain 1
chain 2: EKKRYDREFLLGFQFIFASMQKPEGLPHISDVVLDKANKT
B3: mouse eIF4E1B (63-244) [mouse] / eIF4E-binding motif of human eIF4ENIF1 (27-63) [human] (parent complex)
chain 1: B1 chain 1
chain 2: PHRYTKEELLDIKELPHSKQRPSCLSEKYDSDGVWDP

Variants of: B1
Assay: pulldown with E. coli lysates, quantified; n = 3 independent experiments; parent: 0.9; read off a plot

In order of falling screen value:
1. chain 1 K46E  ~0.85 rel. to Mm eIF4E
2. chain 1 K50N, chain 1 S52M, chain 1 N71E, chain 1 H89R  ~0.7 rel. to Mm eIF4E
3. chain 1 K50N  ~0.68 rel. to Mm eIF4E

Variants of: B2
Assay: pulldown with E. coli lysates, quantified; n = 3 independent experiments; parent: 0.3; read off a plot

In order of rising screen value:
1. chain 1 K46E  ~0.13 rel. to Mm eIF4E
2. chain 1 K50N  ~0.22 rel. to Mm eIF4E
3. chain 1 K50N, chain 1 S52M, chain 1 N71E, chain 1 H89R  ~0.22 rel. to Mm eIF4E

Variants of: B3
Assay: pulldown with E. coli lysates, quantified; n = 3 independent experiments; parent: 2.5; read off a plot

In order of falling screen value:
1. chain 1 K46E  ~1.6 rel. to Mm eIF4E
2. chain 1 K50N  ~1.6 rel. to Mm eIF4E
3. chain 1 K50N, chain 1 S52M, chain 1 N71E, chain 1 H89R  ~1.4 rel. to Mm eIF4E

Source: paper PMC10883267 (2023)
